The values below come from patent US20240285816A1, “FORMULATIONS FOR RADIOTHERAPY AND DIAGNOSTIC IMAGING” (priority 2016, published 2024).

Series [1] in a line: Single dose preclinical toxicology study, intravenous injection. The series is classed as in vivo, Sprague Dawley rats. The procedure:
A single dose preclinical toxicology study in Sprague Dawley rats was conducted to evaluate the potential toxicity of SARTATE when administered via intravenous injection. Testing was performed on solutions of SARTATE-copper-complex (SCC) and unlabeled SARTATE ligand (SL) at a 1:1 ratio. The study was conducted according to the requirements of OECD GLP Principles.
The test item was administered once to six groups of 10 rats (5/sex) at three doses of 50, 250 and 1000 μg/kg in the vehicle at a volume of 3 mL/kg. Two vehicle control groups of 10 rats (5/sex) were administered the vehicle only (10% ethanol in 0.9% sodium chloride and 0.056% gentisic acid) at the same volumetric dose.
Four groups of rats (one vehicle and three test item treated 50, 250 and 1000 μg/kg) from the main study were sacrificed on Day 2.
The following parameters were evaluated: mortality, daily clinical observations, weekly body weights, weekly food consumption, haematology, biochemistry, urinalysis, organ weights and gross necropsy on day of sacrifice. Extensive histopathology was performed on all animals.

A short description of another series: in vivo. More on the design: species or system Balb/c nude mice. The settings on record: Balb/c nude, mouse.
Series [2] is classed as in vitro ADME. The conditions noted are these: human, serum.
Series [3] in a line: HPLC analysis of radiochemical purity and stability of the formulation (gamma scintillation detector). The conditions noted are these: post-manufacture. It counts as physicochemical. From the text:
The formulations of a radioisotope-ligand complex referred to herein are stable in solution and under physiological conditions for a time. The stability of the formulation relates to the stability of the complex, where the radioisotope may undergo dissociation or the complex may undergo radiolysis. The stability of the complex can be measured by considering the radiochemical purity of the formulation. Radiochemical purity is defined as the amount of the radioisotope complexed by the sarcophagine ligand expressed as percentage of the total amount of the radioisotope present in the formulation. The radioisotope may be present in the formulation as a complex with the sarcophagine ligand, as a free radioisotope or as part of a radiolysis product.
The solution is then filtered through a solid phase extraction cartridge. […] HPLC analysis of the solution obtained can be seen in FIG. 1, showing over 97% radiochemical purity. Further HPLC analysis of the same product solution obtained over multiple time points can be seen in FIG. 2, showing that the radiochemical purity remains >90% for more than 11 hours.
The solution is then filtered through a solid phase extraction cartridge. […] HPLC analysis of the solution obtained can be seen in FIG. 3, showing over 98% radiochemical purity. […]

[4] abbreviates: test item SCC and SL 1:1, 2-day and 15-day experimental periods.

Each structure is given as a SMILES string.

For `CC(O)[C@H](NC(=O)[C@@H]1CSSC[C@H](NC(=O)[C@@H](Cc2ccccc2)NC(=O)CCCC(=O)NC23CNCCNCC(C)(CNCCNC2)CNCCNC3)C(=O)N[C@@H](Cc2ccc(O)cc2)C(=O)N[C@H](Cc2c[nH]c3ccccc23)C(=O)N[C@@H](CCCCN)C(=O)N[C@@H](C(C)O)C(=O)N1)C(=O)O` (stereo partly drawn) [SARTATE, MeCOSar-D-Phe-Cys-Tyr-D-Trp-Lys-Thr-Cys-Thr-OH], the Human equivalent dose of the NOAEL at 14 days in series [1] (both sexes, Sprague Dawley, in vivo, intravenous, from rat NOAEL of 1 mg/kg, read-out: Human Equivalent Dose (HED) of the NOAEL) was 0.16 mg/kg. Also, in series [1] (both sexes, in vivo, iv, single i.v. dose, Sprague Dawley rat, read-out: No Observed Adverse Effect level (NOAEL)), the NOAEL at 14 days worked out at 1 mg/kg. In addition, the toxic effects entry in series [1] (intravenously at 50, 250 and 1000 μg/kg) is given as “no toxic effects”. Also, the “safety margin of NOAEL over the maximum human dose” value in series [1] (maximum total dose 0.02 mg per patient) is recorded as 50 times. In series [1] (patient with a weight of 70 kg), the “Human Equivalent Dose as total dose” value is given as 11.2 mg. Further, in series [1] (test item SCC and SL 1:1), the “haematology, blood biochemistry and urine analysis” value is recorded as “no test item-related effects”; the “organ weight and histopathology” value is “no evidence of any test item-related effect”. For the same compound, in series [1] (setting [4]), the “body weight gains versus vehicle control” value is reported as “comparable body weights gains”, the clinical abnormalities result was “no clinical abnormalities related to treatment” and the “feed intake versus control” value was “similar”. In addition, in series [1] (test item SCC and SL 1:1, all animals), the “macroscopic abnormalities at necropsy” value is “No macroscopic abnormalities”. Also, the mortality result in series [1] (test item SCC and SL at 1:1 ratio, 50, 250 and 1000 μg/kg i.v. single dose, treatment and recovery periods) is “No mortalities related to treatment”.
As for `CC(O)[C@H](NC(=O)[C@@H]1CSSC[C@H](NC(=O)[C@@H](Cc2ccccc2)NC(=O)CCCC(=O)NC23CNCCNCC(C)(CNCCNC2)CNCCNC3)C(=O)N[C@@H](Cc2ccc(O)cc2)C(=O)N[C@H](Cc2c[nH]c3ccccc23)C(=O)N[C@@H](CCCCN)C(=O)N[C@@H](C(C)O)C(=O)N1)C(=O)O` (stereo partly shown) [^64Cu-SARTATE, metal not drawn], the tissue uptake at 2 h is 0.4 ± 0.2 %ID/g in “in vivo” (blood) and 3.1 ± 1.3 %ID/g in “in vivo” (uptake by the liver). Moreover, the tissue uptake at 24 h amounted to 0.1 ± 0.02 %ID/g in the series “in vivo” (blood); 10.1 ± 3.5 %ID/g in the series “in vivo” (kidney uptake); 0.1 ± 0.01 %ID/g in the series “in vivo” (muscle accumulation); 31.4 ± 14 %ID/g in “in vivo” (tumour uptake); 0.6 ± 0.3 %ID/g in “in vivo” (uptake in lungs); 0.8 ± 0.2 %ID/g in “in vivo” (uptake in spleen). Besides, the “time for which the complex remains intact (metabolic stability)” value in series [2] was “up to 45 hours”. Further, the “time for which stability of the formulation is observed” value in series [3] was “up to 45 hours”.

One may read the NOAEL as the highest dose or exposure tested at which no adverse effect was seen. The tissue uptake is the share of the injected amount in each gram of the tissue. Lower therefore signals low uptake.
